The values that follow come from US20250127885A1 (University of Texas, published 2025).

Experiment [1] addresses T1, human IgG1 Fc (no Fab arms) (human, UniProt P0DOX5 230-449 = IgG part).
T1 construct: also called huFc; hu-Fc
Put plainly: ELISA, human Fc coated, FLAG-tagged receptor titrated, anti-FLAG (M2)-HRP; curve assigned by paragraph 53 (top line at 10 ug/mL). (In general: An ELISA detects its analyte on a solid surface through an enzyme-linked reagent.)

For experiment [2], the target named is T1, human IgG1 Fc (no Fab arms). Put plainly: ELISA, human Fc coated, FLAG-tagged receptor titrated, anti-FLAG (M2)-HRP; curve assigned by paragraph 53 (lower line at 10 ug/mL).
Experiment [3] concerns the target T2, HCMV gp34 ectodomain displayed on ExpiCHO cells (human cytomegalovirus (HCMV), UniProt P16809 24-182).
T2 construct: also called gp34-FLAG with a PDGFR anchor; not shown: C-terminal FLAG (M2) tag and PDGFR transmembrane domain
T2 sequence: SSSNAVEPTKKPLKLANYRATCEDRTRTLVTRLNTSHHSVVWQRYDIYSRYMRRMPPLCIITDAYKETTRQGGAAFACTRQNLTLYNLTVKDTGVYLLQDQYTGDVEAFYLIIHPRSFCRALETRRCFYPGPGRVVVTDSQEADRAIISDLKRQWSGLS
Put plainly: flow cytometry on gp34-transfected ExpiCHO cells, antibody-mFc at 10 ug/mL, anti-mouse Fcγ AF647. On the technique in general: A flow cytometer gives signals particle by particle.

B1: soluble wild-type HCMV gp34 ectodomain (receptor)
chain: SSSNAVEPTKKPLKLANYRATCEDRTRTLVTRLNTSHHSVVWQRYDIYSRYMRRMPPLCIITDAYKETTRQGGAAFACTRQNLTLYNLTVKDTGVYLLQDQYTGDVEAFYLIIHPRSFCRALETRRCFYPGPGRVVVTDSQEADRAIISDLKRQWSGLS
notes: Prone to aggregation; SEC-purified for the ELISA; also called WT gp34; wild-type (WT) gp34; not shown: C-terminal FLAG (M2) tag and Strep tag
With B1, the EC50 (read off the curve) (commonly the concentration that produces a half-maximal response) in experiment [1] is roughly 0.1 µg/mL.

B2: soluble HCMV gp34 ectodomain with C150S (gp34-M) (receptor)
chain: SSSNAVEPTKKPLKLANYRATCEDRTRTLVTRLNTSHHSVVWQRYDIYSRYMRRMPPLCIITDAYKETTRQGGAAFACTRQNLTLYNLTVKDTGVYLLQDQYTGDVEAFYLIIHPRSFCRALETRRSFYPGPGRVVVTDSQEADRAIISDLKRQWSGLS
notes: also called gp34 C150S; Soluble gp34 C150S; not shown: C-terminal FLAG (M2) tag and single Strep tag
Take B2: the 50% effective concentration (EC50 (read off the curve)) in experiment [2] was roughly 0.04 µg/mL.

B3: anti-gp34 antibody 34-2 with murine IgG2a Fc (antibody, V domains shown)
VH: QVQLQQSGTELVKPGASVKLSCTASGFNIKDTYMHWVKQRPEQGLEWIGRIDPASDDTKYDPKFQGKAAITADTSSNTAYLQLSSLTSEDTAVYYCSKDGYYAYWGQGTLVTVSA
VL: DIVMTQSPASLAVSLGQRATISCRASESVDSYGNSFMHWYQQKPGQPPKLLIYRASNLESGIPARFSGSGSRTDFTLTINPVEADDVATYYCQQSYEVPRTFGGGTKLEIKR
notes: Variable domains on human CL and human CH1 joined to murine IgG2a Fc; also called antibody-mFc; not shown: human CH1 region; murine IgG2a Fc (mFc)
Regarding B3, the binding result in experiment [3] is recorded as “binds”.

B4: anti-gp34 antibody 34-5 with murine IgG2a Fc (antibody, V domains shown)
VH: QVQLQQSGAELVRPGTSVKVSCKTSGYAFTNYLIEWVKQRPGQGLEWIGVINPGSGGTNYNEKFKGKATLTADKSSSTAYMQLSSLTSDDSAVYFCVLQVGRLAYWGQGTLVTVSA
VL: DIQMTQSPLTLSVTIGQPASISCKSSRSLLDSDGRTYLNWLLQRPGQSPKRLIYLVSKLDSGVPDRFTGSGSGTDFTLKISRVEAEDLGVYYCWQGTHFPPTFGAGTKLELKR
notes: as for B3
As for B4, the binding result in experiment [3] is “binds”.

B5: anti-gp34 antibody 34-4 with murine IgG2a Fc (antibody, V domains shown)
VH: QVQLQQSGTVLARPGASVKMSCKASGYTFTAYWMHWVKQRPGQGLEWIGAIYPGNSDAGYNQKFKGKAKLTAVTSTSTAYMELSSLANEDSAVYYCTRWGNNSFWGQGTTLTVSS
VL: DIQMTQSPSSMYASLGERVTITCKASQDINSYLTWFQQKPGKSPKTLIYRANRLVDGVPSRFSGSGSGQDYSLTISTLEYEDMGIYYCLQYDEFPPTFGAGTKLELKR
notes: as for B3
Regarding B5, the binding result in experiment [3] is on record as “binds”.
